Reference: PMC11638070

Target: mitochondrial heat shock protein 60, wild type (mtHsp60) (human), P10809
Test: SEC; analytical SEC of each protein alone (mtHsp60 samples 17 µM monomer); Superdex 200 Increase 3.2/300, room temperature, 20 mM HEPES pH 7.5, 100 mM KCl, 10 mM MgCl2
Conditions: remark: other sources report otherwise

stoichiometry N: 7
B1: mitochondrial heat shock protein 60, wild type (mtHsp60), P10809 27-573 (natural protein)
chain: AKDVKFGADARALMLQGVDLLADAVAVTMGPKGRTVIIEQSWGSPKVTKDGVTVAKSIDLKDKYKNIGAKLVQDVANNTNEEAGDGTTTATVLARSIAKEGFEKISKGANPVEIRRGVMLAVDAVIAELKKQSKPVTTPEEIAQVATISANGDKEIGNIISDAMKKVGRKGVITVKDGKTLNDELEIIEGMKFDRGYISPYFINTSKGQKCEFQDAYVLLSEKKISSIQSIVPALEIANAHRKPLVIIAEDVDGEALSTLVLNRLKVGLQVVAVKAPGFGDNRKNQLKDMAIATGGAVFGEEGLTLNLEDVQPHDLGKVGEVIVTKDDAMLLKGKGDKAQIEKRIQEIIEQLDVTTSEYEKEKLNERLAKLSDGVAVLKVGGTSDVEVNEKKDRVTDALNATRAAVEEGIVLGGGCALLRCIPALDSLTPANEDQKIGIEIIKRTLKIPAMTIAKNAGVEGSLIVEKIMQSSSEVGYDAMAGDFVNMVEKGIIDPTKVVRTALLDAAGVASLLTTAEVVVTEIPKEEKDPGMGAMGGMGGGMGGGMF
